Here are results for five molecules from patent publication US20240279309A1 (Molecular Partners, published 2024).

Experiment in all cases: cell-based or functional assay
Experiment [1] deals with T1, CD40 receptor on cells (HEK293 reporter cells expressing CD40; primary human B cells) (human, UniProt P25942 21-277).
The target of experiment [2] is T1, CD40 receptor on cells (HEK293 reporter …). This is another data set of the same source.
Experiment [3] has the same target. The source holds these as a separate data set.

T1 sequence (P25942 21-277): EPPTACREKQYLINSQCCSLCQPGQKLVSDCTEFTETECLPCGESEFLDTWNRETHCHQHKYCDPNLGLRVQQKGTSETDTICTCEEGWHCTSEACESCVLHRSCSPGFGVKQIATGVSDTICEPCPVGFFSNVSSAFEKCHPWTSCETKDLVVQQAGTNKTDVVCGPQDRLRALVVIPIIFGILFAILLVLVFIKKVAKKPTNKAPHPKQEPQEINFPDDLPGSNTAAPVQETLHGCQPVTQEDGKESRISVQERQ

B1: SMA099 (SEQ ID NO: 104) (designed binder)
chain: MRGSHHHHHHGSDLGKKLLEAARAGQDDEVRELLKAGADVNAKDYFSHTPLHLAARNGHLKIVEVLLKAGADVNAKDFAGKTPLHLAAADGHLEIVEVLLKAGADVNAQDIFGKTPADIAADAGHEDIAEVLQKAAGSPTPTPTTPTPTPTTPTPTPTGSDLGEKLLVAALYGQDDEVRELLKAGADVNAKDQWGLTPLHKAALQGHLEIVEVLLKAGADVNAKDERGHTPLHWAARFGHLEIVEVLLKAGADVNAQDQKGYTPADLAALWGHEDIAEVLQKAAGSPTPTPTTPTPTPTTPTPTPTGSDLGKKLLQAARAGQLDEVRELLKAGADVNAKDTWGFTPLHIAAESGHLEIVEVLLKAGADVNAKDVQGRTPLHIAAHSGHLEIVEVLLKAGADVNAKDFRGWTPLHLAAWSGHLEIVEILLKAGADVNAQDKSGKTPADLAARAGHQDIAEVLQKAAGSPTPTPTTPTPTPTTPTPTPTGSDLGKKLLQAARAGQLDEVRELLKAGADVNAKDTWGFTPLHIAAESGHLEIVEVLLKAGADVNAKDVQGRTPLHIAAHSGHLEIVEVLLKAGADVNAKDFRGWTPLHLAAWSGHLEIVEILLKAGADVNAQDKSGKTPADLAARAGHQDIAEVLQKAAGSPTPTPTTPTPTPTTPTPTPTGSDLGKKLLEAARAGQDDEVRELLKAGADVNAKDYFSHTPLHLAARNGHLKIVEVLLKAGADVNAKDFAGKTPLHLAAADGHLEIVEVLLKAGADVNAQDIFGKTPADIAADAGHEDIAEVLQKAA
For the molecule B1, in experiment [1], the “EC50 [nM], % CD86, human B cells with FAP-CHO, w HSA” value (shortened to “EC50 [nM], % CD86 … w HSA”) turned out to be 7.5 nM; the “EC50 [nM], % CD86, human B cells with FAP-CHO, w/o HSA” value (“EC50 [nM], % CD86 … w/o HSA” for short) amounted to 4.68 nM; the “EC50 [nM], MFI CD86, human B cells with FAP-CHO, w HSA” value (from here on “EC50 [nM], MFI CD86 … w HSA”) is 19.4 nM; the “EC50 [nM], MFI CD86, human B cells with FAP-CHO, w/o HSA” value (from here on “EC50 [nM], MFI CD86 … w/o HSA”) amounted to 18.2 nM. For the same molecule, in experiment [2], the “Efficacy [MFI at highest dose], MFI CD86, human B cells with FAP-CHO, w HSA” value turned out to be 1720 MFI; the “Efficacy [MFI at highest dose], MFI CD86, human B cells with FAP-CHO, w/o HSA” value turned out to be 4950 MFI; the “Efficacy at highest dose, % CD86, human B cells with FAP-CHO, w HSA” value is 71.7%; the “Efficacy at highest dose, % CD86, human B cells with FAP-CHO, w/o HSA” value turned out to be 84.4%. Besides, in experiment [3], the “Efficacy [MFI at highest dose], MFI CD86, human B cells with WT-CHO (no FAP), w HSA” value (“Efficacy [MFI at highest dose] … (no FAP), w HSA” below) is 274 MFI; the “Efficacy [MFI at highest dose], MFI CD86, human B cells with WT-CHO (no FAP), w/o HSA” value is 289 MFI; the “Efficacy at highest dose, % CD86, human B cells with WT-CHO (no FAP), w HSA” value is 42.5%; the “Efficacy at highest dose, % CD86, human B cells with WT-CHO (no FAP), w/o HSA” value was 47.4%.

B2: SMA087 (SEQ ID NO: 100) (designed binder)
chain: MRGSHHHHHHGSDLGKKLLEAARAGQDDEVRELLKAGADVNAKDYFSHTPLHLAARNGHLKIVEVLLKAGADVNAKDFAGKTPLHLAAADGHLEIVEVLLKAGADVNAQDIFGKTPADIAADAGHEDIAEVLQKAAGSPTPTPTTPTPTPTTPTPTPTGSDLGEKLLVAALYGQDDEVRELLKAGADVNAKDQWGLTPLHKAALQGHLEIVEVLLKAGADVNAKDERGHTPLHWAARFGHLEIVEVLLKAGADVNAQDQKGYTPADLAALWGHEDIAEVLQKAAGSPTPTPTTPTPTPTTPTPTPTGSDLGKKLLQAARAGQLDEVRELLKAGADVNAKDTWGFTPLHIAAESGHLEIVEVLLKAGADVNAKDVQGRTPLHIAAHSGHLEIVEVLLKAGADVNAKDFRGWTPLHLAAWSGHLEIVEILLKAGADVNAQDKSGKTPADLAARAGHQDIAEVLQKAA
As for B2, in experiment [1], the “EC50 [nM], % CD86 … w HSA” value stood at 72.3 nM; the “EC50 [nM], % CD86 … w/o HSA” value is 11.4 nM; the “EC50 [nM], MFI CD86 … w HSA” value came to 52 nM; the “EC50 [nM], MFI CD86 … w/o HSA” value is 28.9 nM. Moreover, in experiment [2], the “Efficacy [MFI at highest dose], MFI CD86, human B cells with FAP-CHO, w HSA” value was 799 MFI; the “Efficacy [MFI at highest dose], MFI CD86, human B cells with FAP-CHO, w/o HSA” value worked out at 1640 MFI; the “Efficacy at highest dose, % CD86, human B cells with FAP-CHO, w HSA” value turned out to be 27%; the “Efficacy at highest dose, % CD86, human B cells with FAP-CHO, w/o HSA” value came out at 43.4%. For the same molecule, in experiment [3], the “Efficacy [MFI at highest dose] … (no FAP), w HSA” value was 299 MFI; the “Efficacy [MFI at highest dose], MFI CD86, human B cells with WT-CHO (no FAP), w/o HSA” value amounted to 291 MFI; the “Efficacy at highest dose, % CD86, human B cells with WT-CHO (no FAP), w HSA” value came out at 13.7%; the “Efficacy at highest dose, % CD86, human B cells with WT-CHO (no FAP), w/o HSA” value was 12.5%.

B3: AS579 (SEQ ID NO: 105) (designed binder)
chain: MRGSHHHHHHGSDLGKKLLEAARAGQDDEVRELLKAGADVNAKDYFSHTPLHLAARNGHLKIVEVLLKAGADVNAKDFAGKTPLHLAAADGHLEIVEVLLKAGADVNAQDIFGKTPADIAADAGHEDIAEVLQKAAGSPTPTPTTPTPTPTTPTPTPTGSDLGKKLLEAARAGQDDEVRELLKAGADVNAKDYFSHTPLHLAARNGHLKIVEVLLKAGADVNAKDFAGKTPLHLAAADGHLEIVEVLLKAGADVNAQDIFGKTPADIAADAGHEDIAEVLQKAAGSPTPTPTTPTPTPTTPTPTPTGSDLGEKLLVAALYGQDDEVRELLKAGADVNAKDQWGLTPLHKAALQGHLEIVEVLLKAGADVNAKDERGHTPLHWAARFGHLEIVEVLLKAGADVNAQDQKGYTPADLAALWGHEDIAEVLQKAAGSPTPTPTTPTPTPTTPTPTPTGSDLGKKLLQAARAGQLDEVRELLKAGADVNAKDTWGFTPLHIAAESGHLEIVEVLLKAGADVNAKDVQGRTPLHIAAHSGHLEIVEVLLKAGADVNAKDFRGWTPLHLAAWSGHLEIVEILLKAGADVNAQDKSGKTPADLAARAGHQDIAEVLQKAAGSPTPTPTTPTPTPTTPTPTPTGSDLGKKLLQAARAGQLDEVRELLKAGADVNAKDTWGFTPLHIAAESGHLEIVEVLLKAGADVNAKDVQGRTPLHIAAHSGHLEIVEVLLKAGADVNAKDFRGWTPLHLAAWSGHLEIVEILLKAGADVNAQDKSGKTPADLAARAGHQDIAEVLQKAA
For B3, in experiment [1], the “EC50 [nM], % CD86 … w HSA” value is 10.2 nM; the “EC50 [nM], % CD86 … w/o HSA” value was determined as 2.27 nM; the “EC50 [nM], MFI CD86 … w HSA” value stood at 23.1 nM; the “EC50 [nM], MFI CD86 … w/o HSA” value worked out at 10 nM. Besides, in experiment [2], the “Efficacy [MFI at highest dose], MFI CD86, human B cells with FAP-CHO, w HSA” value stood at 1780 MFI; the “Efficacy [MFI at highest dose], MFI CD86, human B cells with FAP-CHO, w/o HSA” value was 4860 MFI; the “Efficacy at highest dose, % CD86, human B cells with FAP-CHO, w HSA” value worked out at 71.9%; the “Efficacy at highest dose, % CD86, human B cells with FAP-CHO, w/o HSA” value was found to be 83%. Also, in experiment [3], the “Efficacy [MFI at highest dose] … (no FAP), w HSA” value stood at 242 MFI; the “Efficacy [MFI at highest dose], MFI CD86, human B cells with WT-CHO (no FAP), w/o HSA” value came out at 252 MFI; the “Efficacy at highest dose, % CD86, human B cells with WT-CHO (no FAP), w HSA” value is 40.1%; the “Efficacy at highest dose, % CD86, human B cells with WT-CHO (no FAP), w/o HSA” value was found to be 42%.

B4: SMA014 (SEQ ID NO: 99) (designed binder)
chain: MRGSHHHHHHGSDLGEKLLVAALYGQDDEVRELLKAGADVNAKDQWGLTPLHKAALQGHLEIVEVLLKAGADVNAKDERGHTPLHWAARFGHLEIVEVLLKAGADVNAQDQKGYTPADLAALWGHEDIAEVLQKAAGSPTPTPTTPTPTPTTPTPTPTGSDLGKKLLQAARAGQLDEVRELLKAGADVNAKDTWGFTPLHIAAESGHLEIVEVLLKAGADVNAKDVQGRTPLHIAAHSGHLEIVEVLLKAGADVNAKDFRGWTPLHLAAWSGHLEIVEILLKAGADVNAQDKSGKTPADLAARAGHQDIAEVLQKAA
In the case of B4, in experiment [1], the “EC50 [nM], % CD86 … w HSA” value turned out to be 6.15 nM; the “EC50 [nM], % CD86 … w/o HSA” value came out at 4.21 nM; the “EC50 [nM], MFI CD86 … w HSA” value is 7.7 nM; the “EC50 [nM], MFI CD86 … w/o HSA” value was found to be 8.46 nM. In addition, in experiment [2], the “Efficacy [MFI at highest dose], MFI CD86, human B cells with FAP-CHO, w HSA” value worked out at 2190 MFI; the “Efficacy [MFI at highest dose], MFI CD86, human B cells with FAP-CHO, w/o HSA” value worked out at 2440 MFI; the “Efficacy at highest dose, % CD86, human B cells with FAP-CHO, w HSA” value is 47%; the “Efficacy at highest dose, % CD86, human B cells with FAP-CHO, w/o HSA” value amounted to 48.4%. Also, in experiment [3], the “Efficacy [MFI at highest dose] … (no FAP), w HSA” value amounted to 310 MFI; the “Efficacy [MFI at highest dose], MFI CD86, human B cells with WT-CHO (no FAP), w/o HSA” value was 294 MFI; the “Efficacy at highest dose, % CD86, human B cells with WT-CHO (no FAP), w HSA” value was found to be 13.3%; the “Efficacy at highest dose, % CD86, human B cells with WT-CHO (no FAP), w/o HSA” value worked out at 13.2%.

B5: SMA105 (SEQ ID NO: 106) (designed binder)
chain: MRGSHHHHHHGSDLGEKLLVAALYGQDDEVRELLKAGADVNAKDQWGLTPLHKAALQGHLEIVEVLLKAGADVNAKDERGHTPLHWAARFGHLEIVEVLLKAGADVNAQDQKGYTPADLAALWGHEDIAEVLQKAAGSPTPTPTTPTPTPTTPTPTPTGSDLGKKLLQAARAGQLDEVRELLKAGADVNAKDTWGFTPLHIAAESGHLEIVEVLLKAGADVNAKDVQGRTPLHIAAHSGHLEIVEVLLKAGADVNAKDFRGWTPLHLAAWSGHLEIVEILLKAGADVNAQDKSGKTPADLAARAGHQDIAEVLQKAAGSPTPTPTTPTPTPTTPTPTPTGSDLGKKLLQAARAGQLDEVRELLKAGADVNAKDTWGFTPLHIAAESGHLEIVEVLLKAGADVNAKDVQGRTPLHIAAHSGHLEIVEVLLKAGADVNAKDFRGWTPLHLAAWSGHLEIVEILLKAGADVNAQDKSGKTPADLAARAGHQDIAEVLQKAAGSPTPTPTTPTPTPTTPTPTPTGSDLGKKLLQAARAGQLDEVRELLKAGADVNAKDTWGFTPLHIAAESGHLEIVEVLLKAGADVNAKDVQGRTPLHIAAHSGHLEIVEVLLKAGADVNAKDFRGWTPLHLAAWSGHLEIVEILLKAGADVNAQDKSGKTPADLAARAGHQDIAEVLQKAA
Consider B5, for which, in experiment [1], the “EC50 [nM], % CD86 … w/o HSA” value was determined as 0.11 nM and the “EC50 [nM], MFI CD86 … w/o HSA” value was 0.33 nM. For the same molecule, in experiment [2], the “Efficacy [MFI at highest dose], MFI CD86, human B cells with FAP-CHO, w/o HSA” value was 5560 MFI and the “Efficacy at highest dose, % CD86, human B cells with FAP-CHO, w/o HSA” value worked out at 87.2%. Also, in experiment [3], the “Efficacy [MFI at highest dose], MFI CD86, human B cells with WT-CHO (no FAP), w/o HSA” value worked out at 672 MFI and the “Efficacy at highest dose, % CD86, human B cells with WT-CHO (no FAP), w/o HSA” value came to 69.2%.
